Experimental data from patent publication US7151087.

Substrate: CC chemokine receptor 5 (CCR5), clone 8.5 cDNA, stably expressed on HEK 293 cells (human), P51681
Experiment: homologous competition against ^125I-RANTES on CCR5.1 cells, 37° C.
Details: remark: other sources report otherwise

Chain of CC chemokine receptor 5 (CCR5), clone 8.5 cDNA, stably expressed on HEK 293 cells (human), P51681 (P51681 whole entry): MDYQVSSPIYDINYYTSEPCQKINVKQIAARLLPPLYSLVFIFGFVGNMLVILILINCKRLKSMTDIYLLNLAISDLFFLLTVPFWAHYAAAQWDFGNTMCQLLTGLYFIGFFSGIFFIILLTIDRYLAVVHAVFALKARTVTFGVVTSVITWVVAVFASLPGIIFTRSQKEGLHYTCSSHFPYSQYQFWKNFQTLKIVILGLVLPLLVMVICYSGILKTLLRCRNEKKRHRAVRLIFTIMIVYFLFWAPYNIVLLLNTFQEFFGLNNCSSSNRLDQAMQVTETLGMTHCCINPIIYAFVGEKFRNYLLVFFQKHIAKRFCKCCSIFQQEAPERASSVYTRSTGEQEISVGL

B1: RANTES, P13501 24-91 (ligand, human, UniProt P13501 24-91, looked up)
chain: SPYSSDTTPCCFAYIARPLPRAHIKEYFYTSGKCSNPAVVFVTRKNRQVCANPEKKWVREYINSLEMS
IC50: 80 nM
